In patent US20180155451A1 (published 2018):

T1: FcγRIIa R (human, UniProt P12318 34-217)
T1 construct: extracellular domain; also called FcgRIIa R type; 2aR
T1 sequence (looked up): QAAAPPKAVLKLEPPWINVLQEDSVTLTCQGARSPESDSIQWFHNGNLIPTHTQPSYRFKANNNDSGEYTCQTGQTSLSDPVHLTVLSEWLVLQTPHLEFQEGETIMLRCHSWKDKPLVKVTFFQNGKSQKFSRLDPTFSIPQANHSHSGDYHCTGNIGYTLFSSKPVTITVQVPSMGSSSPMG


target: T1, FcγRIIa R; experiment: SPR Biacore; vs GpH7-B3/GpL16-k0 =100

| Binder | Ho/Con_2aR |
| --- | --- |
| GpH7-B3 variant P331_02A/GpL16-k0 (antibody, human IgG1, kappa, also called Ho Ab P331_02A) heavy: not shown light: DIVMTQSPLSLPVTPGEPASISCQASESLVHSNRNTYLHWYLQKPGQSPQLLIYKVSNRFSGVPDRFSGSGSGTDFTLKISRVEAEDVGVYYCSQNTHVPPTFGQGTKVEIERTVAAPSVFIFPPSDEQLKSGTASVVCLLNNFYPREAKVQWKVDNALQSGNSQESVTEQDSKDSTYSLSSTLTLSKADYEKHKVYACEVTHQGLSSPVTKSFNRGEC | 102 % of control |
| GpH7-B3 variant P271_08L/GpL16-k0 (antibody, human IgG1, kappa, also called Ho Ab P271_08L) heavy: not shown light: DIVMTQSPLSLPVTPGEPASISCQASESLVHSNRNTYLHWYLQKPGQSPQLLIYKVSNRFSGVPDRFSGSGSGTDFTLKISRVEAEDVGVYYCSQNTHVPPTFGQGTKVEIERTVAAPSVFIFPPSDEQLKSGTASVVCLLNNFYPREAKVQWKVDNALQSGNSQESVTEQDSKDSTYSLSSTLTLSKADYEKHKVYACEVTHQGLSSPVTKSFNRGEC | 102 % of control |
| GpH7-B3 variant P238_03V/GpL16-k0 (antibody, human IgG1, kappa, also called Ho Ab P238_03V) heavy: not shown light: DIVMTQSPLSLPVTPGEPASISCQASESLVHSNRNTYLHWYLQKPGQSPQLLIYKVSNRFSGVPDRFSGSGSGTDFTLKISRVEAEDVGVYYCSQNTHVPPTFGQGTKVEIERTVAAPSVFIFPPSDEQLKSGTASVVCLLNNFYPREAKVQWKVDNALQSGNSQESVTEQDSKDSTYSLSSTLTLSKADYEKHKVYACEVTHQGLSSPVTKSFNRGEC | 116 % of control |
| GpH7-B3 variant P238_09D/GpL16-k0 (antibody, human IgG1, kappa, also called Ho Ab P238_09D) heavy: not shown light: DIVMTQSPLSLPVTPGEPASISCQASESLVHSNRNTYLHWYLQKPGQSPQLLIYKVSNRFSGVPDRFSGSGSGTDFTLKISRVEAEDVGVYYCSQNTHVPPTFGQGTKVEIERTVAAPSVFIFPPSDEQLKSGTASVVCLLNNFYPREAKVQWKVDNALQSGNSQESVTEQDSKDSTYSLSSTLTLSKADYEKHKVYACEVTHQGLSSPVTKSFNRGEC | 13 % of control |

Results, then the binder that gave them:

| Ho/Con_2aR | Binder |
| --- | --- |
| 42.6 % of control | GpH7-B3 variant N325_15Y/GpL16-k0 (antibody, human IgG1, kappa, also called Ho Ab N325_15Y) heavy: not shown light: DIVMTQSPLSLPVTPGEPASISCQASESLVHSNRNTYLHWYLQKPGQSPQLLIYKVSNRFSGVPDRFSGSGSGTDFTLKISRVEAEDVGVYYCSQNTHVPPTFGQGTKVEIERTVAAPSVFIFPPSDEQLKSGTASVVCLLNNFYPREAKVQWKVDNALQSGNSQESVTEQDSKDSTYSLSSTLTLSKADYEKHKVYACEVTHQGLSSPVTKSFNRGEC |
| 146 % of control | GpH7-B3 variant P238_04F/GpL16-k0 (antibody, human IgG1, kappa, also called Ho Ab P238_04F) heavy: not shown light: DIVMTQSPLSLPVTPGEPASISCQASESLVHSNRNTYLHWYLQKPGQSPQLLIYKVSNRFSGVPDRFSGSGSGTDFTLKISRVEAEDVGVYYCSQNTHVPPTFGQGTKVEIERTVAAPSVFIFPPSDEQLKSGTASVVCLLNNFYPREAKVQWKVDNALQSGNSQESVTEQDSKDSTYSLSSTLTLSKADYEKHKVYACEVTHQGLSSPVTKSFNRGEC |
| 106 % of control | GpH7-B3 variant P331_04F/GpL16-k0 (antibody, human IgG1, kappa, also called Ho Ab P331_04F) heavy: not shown light: DIVMTQSPLSLPVTPGEPASISCQASESLVHSNRNTYLHWYLQKPGQSPQLLIYKVSNRFSGVPDRFSGSGSGTDFTLKISRVEAEDVGVYYCSQNTHVPPTFGQGTKVEIERTVAAPSVFIFPPSDEQLKSGTASVVCLLNNFYPREAKVQWKVDNALQSGNSQESVTEQDSKDSTYSLSSTLTLSKADYEKHKVYACEVTHQGLSSPVTKSFNRGEC |
| 88.9 % of control | GpH7-B3 variant P238_06M/GpL16-k0 (antibody, human IgG1, kappa, also called Ho Ab P238_06M) heavy: not shown light: DIVMTQSPLSLPVTPGEPASISCQASESLVHSNRNTYLHWYLQKPGQSPQLLIYKVSNRFSGVPDRFSGSGSGTDFTLKISRVEAEDVGVYYCSQNTHVPPTFGQGTKVEIERTVAAPSVFIFPPSDEQLKSGTASVVCLLNNFYPREAKVQWKVDNALQSGNSQESVTEQDSKDSTYSLSSTLTLSKADYEKHKVYACEVTHQGLSSPVTKSFNRGEC |
| 56 % of control | GpH7-B3 variant N325_20W/GpL16-k0 (antibody, human IgG1, kappa, also called Ho Ab N325_20W) heavy: not shown light: DIVMTQSPLSLPVTPGEPASISCQASESLVHSNRNTYLHWYLQKPGQSPQLLIYKVSNRFSGVPDRFSGSGSGTDFTLKISRVEAEDVGVYYCSQNTHVPPTFGQGTKVEIERTVAAPSVFIFPPSDEQLKSGTASVVCLLNNFYPREAKVQWKVDNALQSGNSQESVTEQDSKDSTYSLSSTLTLSKADYEKHKVYACEVTHQGLSSPVTKSFNRGEC |
